Assays:
GST-TRF2 = GST-TRF2 (human, UniProt Q15554 43-542); experiment: EMSA
GST-TRF1 = GST-TRF1 (human, UniProt P54274 1-439); experiment: EMSA
Sequence of GST-TRF1 (P54274 whole entry): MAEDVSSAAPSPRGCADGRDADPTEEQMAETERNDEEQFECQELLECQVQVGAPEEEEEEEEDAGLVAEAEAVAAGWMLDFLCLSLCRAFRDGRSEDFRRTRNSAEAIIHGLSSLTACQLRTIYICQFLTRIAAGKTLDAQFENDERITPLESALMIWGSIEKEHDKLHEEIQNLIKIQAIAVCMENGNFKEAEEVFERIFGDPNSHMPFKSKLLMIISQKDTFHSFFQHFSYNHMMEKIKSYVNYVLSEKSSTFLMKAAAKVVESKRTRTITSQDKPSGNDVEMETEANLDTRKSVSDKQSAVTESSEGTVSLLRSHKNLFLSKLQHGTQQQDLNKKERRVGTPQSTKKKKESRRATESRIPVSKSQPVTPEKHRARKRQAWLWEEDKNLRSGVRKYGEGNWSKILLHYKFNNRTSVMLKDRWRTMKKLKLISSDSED

Sequence of GST-TRF2 (Q15554 43-542): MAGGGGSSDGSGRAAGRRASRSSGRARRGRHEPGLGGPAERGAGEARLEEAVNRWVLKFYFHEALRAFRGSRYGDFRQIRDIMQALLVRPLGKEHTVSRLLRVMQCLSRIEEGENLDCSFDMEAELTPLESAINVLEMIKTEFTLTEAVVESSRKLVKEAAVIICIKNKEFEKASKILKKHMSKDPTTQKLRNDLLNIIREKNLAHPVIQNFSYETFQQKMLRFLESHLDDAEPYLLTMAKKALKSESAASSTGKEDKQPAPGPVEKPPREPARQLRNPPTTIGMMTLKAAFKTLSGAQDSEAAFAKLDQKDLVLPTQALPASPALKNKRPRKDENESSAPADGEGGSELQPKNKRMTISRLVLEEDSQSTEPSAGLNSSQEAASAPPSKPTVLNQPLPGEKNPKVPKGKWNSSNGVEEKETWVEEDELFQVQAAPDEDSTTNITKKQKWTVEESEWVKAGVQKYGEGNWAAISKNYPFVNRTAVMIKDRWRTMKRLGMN

Binder | binding result (GST-TRF2) | binding result (GST-TRF1)
CCCUAACCCUAACCCUAACCCUAACCCUAA (ssRNA) [(CCCUAA)5 RNA] | no binding | no binding
AGAGAUUGCCUGACGUCAGAGAGCUAGCGA (ssRNA) [random RNA] | no binding | no binding
TTAGGGTTAGGGTTAGGGTTAGGGTTAGGG (ssDNA) [(TTAGGG)5 DNA] | no binding | no binding
TATCGATAAGCTTGATATCGAATTCCTGCA (ssDNA) [random DNA] | no binding | no binding

From publication PMC5808845
